97 variants from the supplement of paper PMC10567573 can be followed below.

B1: TRIM29 (parent)
chain: RKCPVHGKTMELFCQTDQTCICYL
B2: TNNI2 (parent)
chain: DWRKNIEEKSGMEGRKKMFESES
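Note: lentivirally expressed fusions sorted by FACS into six bins by GFP to DsRed ratio, PSI derived from sequencing read proportions per bin multiplied by bin number.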

Variants of B1 are the subject of one data set. In words: protein stability index of a GFP-peptide fusion (GPS, HEK-293T) (PSI 1-6); higher = more stable. Conditions: c terminus: a fixed tail appended.
DKCPVHGKTMELFCQTDQTCICYL [R1D]: the protein stability index is 1.67.
As to AKCPVHGKTMELFCQTDQTCICYL [R1A], the protein stability index is 2.68.
Still for that read-out and setting: in the case of CKCPVHGKTMELFCQTDQTCICYL [R1C] it was 2.39.
Still for that read-out and setting: next, EKCPVHGKTMELFCQTDQTCICYL [R1E]: 1.71; FKCPVHGKTMELFCQTDQTCICYL [R1F]: 1.95; HKCPVHGKTMELFCQTDQTCICYL [R1H]: 3.
The same measure, in the same setting: next, GKCPVHGKTMELFCQTDQTCICYL [R1G]: 3.33.

Variants of B2 are the subject of a further data set. The data set is described as above. The following applies: c terminus: native.
Turning to DWRKNIEEKSGMEGRPKMFESES [K16P], the protein stability index worked out at 2.72.
The same measure, in the same setting: in the case of DWRKNIEEKSGMEGRWKMFESES [K16W] it was 1.85.
For DWRKNIEEKSGMEGRDKMFESES [K16D], the protein stability index amounted to 3.19.
On the same count and under the same terms, next, DWRKNIEEKSGMEGRNKMFESES [K16N]: 1.95.
DWRKNIEEKSGMEGRHKMFESES [K16H]: the protein stability index is 1.85.
For DWRKNIEEKSGMEGREKMFESES [K16E], the protein stability index worked out at 2.39.
On the same count and under the same terms, next, DWRKNIEEKSGMEGRGKMFESES [K16G]: 1.78; DWRKNIEEKSGMEGRMKMFESES [K16M]: 1.92.
On the same count and under the same terms, in the case of DWRKNIEEKSGMEGRLKMFESES [K16L] it was 2.85.
With DWRKNIEEKSGMEGRTKMFESES [K16T], the protein stability index was determined as 2.07.
Still for that read-out and setting: next, DWRKNIEEKSGMEGRVKMFESES [K16V]: 2.32; DWRKNIEEKSGMEGRQKMFESES [K16Q]: 2.19; DWRKNIEEKSGMEGRYKMFESES [K16Y]: 1.24.
Still for that read-out and setting: in the case of DWRKNIEEKSGMEGRCKMFESES [K16C] it was 2.19; in that of DWRKNIEEKSGMEGRRKMFESES [K16R], 2.3.
Still for that read-out and setting: in the case of DWRKNIEEKSGMEGRIKMFESES [K16I] it was 1.83; in that of DWRKNIEEKSGMEGRSKMFESES [K16S], 1.98; in that of DWRKNIEEKSGMEGRKKMFESYS [E22Y], 3.84.
For DWRKNIEEKSGMEGRKKMFESMS [E22M], the protein stability index stood at 3.29.
Still for that read-out and setting: next, DWRKNIEEKSGMEGRKKMFESDS [E22D]: 3.81; DWRKNIEEKSGMEGRKKMFESWS [E22W]: 3.86.
Same read-out and setting: in the case of DWRKNIEEKSGMEGRKKMFESRS [E22R] it was 1.58; in that of DWRKNIEEKSGMEGRKKMFESCS [E22C], 3.71; in that of DWRKNIEEKSGMEGRKKMFESGS [E22G], 5.04.
Same read-out and setting: in the case of DWRKNIEEKSGMEGRKKMFESLS [E22L] it was 3.17; in that of DWRKNIEEKSGMEGRKKMFESFS [E22F], 4.22; in that of DWRKNIEEKSGMEGRKKMFESVS [E22V], 3.77.
With DWRKNIEEKSGMEGRKKMFESSS [E22S], the protein stability index was 5.13.
Still for that read-out and setting: next, DWRKNIEEKSGMEGRKKMFESKS [E22K]: 4.67.
The same measure, in the same setting: in the case of DWRKNIEEKSGMEGRKKMFESTS [E22T] it was 5.25; in that of DWRKNIEEKSGMEGRKKMFESHS [E22H], 4.
Same read-out and setting: in the case of DWRKNIEEKSGMEGRKKMFESNS [E22N] it was 4.44; in that of DWRKNIEEKSGMEGRKKMFESIS [E22I], 3.3.
In the case of DWRKNIEEKSGMEGRKKMFESPS [E22P], the protein stability index turned out to be 2.06.
Still for that read-out and setting: next, DWRKNIEEKSGMEGRKKMFESQS [E22Q]: 4.33; DWRKNIEEKSGMEGRKKMFLSES [E20L]: 2.33; DWRKNIEEKSGMEGRKKMFKSES [E20K]: 2.92.
Still for that read-out and setting: in the case of DWRKNIEEKSGMEGRKKMFISES [E20I] it was 2.89; in that of DWRKNIEEKSGMEGRKKMFPSES [E20P], 5.16.
Same read-out and setting: in the case of DWRKNIEEKSGMEGRKKMFSSES [E20S] it was 4.04; in that of DWRKNIEEKSGMEGRKKMFQSES [E20Q], 3.54.
Take DWRKNIEEKSGMEGRKKMFTSES [E20T]: the protein stability index was found to be 2.94.
On the same count and under the same terms, in the case of DWRKNIEEKSGMEGRKKMFASES [E20A] it was 2.88; in that of DWRKNIEEKSGMEGRKKMFMSES [E20M], 2.75.
For the variant DWRKNIEEKSGMEGRKKMFRSES [E20R], the protein stability index turned out to be 2.22.
With DWRKNIEEKSGMEGRKKMFWSES [E20W], the protein stability index amounted to 3.71.
Turning to DWRKNIEEKSGMEGRKKMFVSES [E20V], the protein stability index is 2.79.
Still for that read-out and setting: in the case of DWRKNIEEKSGMEGRKKMFCSES [E20C] it was 2.67.
Still for that read-out and setting: in the case of DWRKNIEEKSGMEGRKKMFHSES [E20H] it was 4.26; in that of DWRKNIEEKSGMEGRKKMFDSES [E20D], 3.65; in that of DWRKNIEEKSGMEGRKKMFFSES [E20F], 4.56.
Same read-out and setting: in the case of DWRKNIEEKSGMEGRKKMFGSES [E20G] it was 4.73.
For DWRKNIEEKSGMEGRKKMFYSES [E20Y], the protein stability index was 3.81.
Same read-out and setting: next, DWRKNIEEKSGMEGRKKVFESES [M18V]: 2.39; DWRKNIEEKSGMEGRKKLFESES [M18L]: 1.13.
On the same count and under the same terms, next, DWRKNIEEKSGMEGRKKPFESES [M18P]: 4.59; DWRKNIEEKSGMEGRKKSFESES [M18S]: 4.36.
On the same count and under the same terms, next, DWRKNIEEKSGMEGRKKGFESES [M18G]: 5.42; DWRKNIEEKSGMEGRKKDFESES [M18D]: 6; DWRKNIEEKSGMEGRKKWFESES [M18W]: 1.66.
Turning to DWRKNIEEKSGMEGRKKNFESES [M18N], the protein stability index turned out to be 4.47.
Same read-out and setting: in the case of DWRKNIEEKSGMEGRKKRFESES [M18R] it was 4.45.
The same measure, in the same setting: in the case of DWRKNIEEKSGMEGRKKYFESES [M18Y] it was 1.85; in that of DWRKNIEEKSGMEGRKKIFESES [M18I], 1.98.
On the same count and under the same terms, in the case of DWRKNIEEKSGMEGRKKAFESES [M18A] it was 2.26; in that of DWRKNIEEKSGMEGRKKKFESES [M18K], 2.78.
Regarding DWRKNIEEKSGMEGRKKCFESES [M18C], the protein stability index worked out at 3.89.
Same read-out and setting: next, DWRKNIEEKSGMEGRKKEFESES [M18E]: 4.34.
The same measure, in the same setting: next, DWRKNIEEKSGMEGRKKTFESES [M18T]: 4.9; DWRKNIEEKSGMEGRKKHFESES [M18H]: 2.7.
Still for that read-out and setting: next, DWRKNIEEKSGMEGRKKMFEVES [S21V]: 2.39; DWRKNIEEKSGMEGRKKMFERES [S21R]: 3.41; DWRKNIEEKSGMEGRKKMFECES [S21C]: 3.19.
Regarding DWRKNIEEKSGMEGRKKMFEDES [S21D], the protein stability index was found to be 5.47.
The same measure, in the same setting: in the case of DWRKNIEEKSGMEGRKKMFEKES [S21K] it was 3.49; in that of DWRKNIEEKSGMEGRKKMFEHES [S21H], 2.9; in that of DWRKNIEEKSGMEGRKKMFELES [S21L], 3.92.
As to DWRKNIEEKSGMEGRKKMFEWES [S21W], the protein stability index came to 3.35.
On the same count and under the same terms, next, DWRKNIEEKSGMEGRKKMFEPES [S21P]: 1.37; DWRKNIEEKSGMEGRKKMFEQES [S21Q]: 4.96; DWRKNIEEKSGMEGRKKMFEFES [S21F]: 4.49.
On the same count and under the same terms, in the case of DWRKNIEEKSGMEGRKKMFEEES [S21E] it was 5.2; in that of DWRKNIEEKSGMEGRKKMFEMES [S21M], 3.92.
Turning to DWRKNIEEKSGMEGRKKMFEAES [S21A], the protein stability index amounted to 1.5.
The same measure, in the same setting: in the case of DWRKNIEEKSGMEGRKKMFENES [S21N] it was 3.39; in that of DWRKNIEEKSGMEGRKKMFEYES [S21Y], 4.05; in that of DWRKNIEEKSGMEGRKKMFETES [S21T], 4.47.
Take DWRKNIEEKSGMEGRKKMFESEN [S23N]: the protein stability index was determined as 4.46.
On the same count and under the same terms, in the case of DWRKNIEEKSGMEGRKKMFESET [S23T] it was 1.42; in that of DWRKNIEEKSGMEGRKKMFESER [S23R], 2.15.
